According to patent US20240150473A1, “MODULATION OF WNT SIGNALING IN GASTROINTESTINAL DISORDERS” (Surrozen Operating, Inc., priority 2021, published 2024):

T1: Lrp6E3E4 domain (Homo sapiens, UniProt O75581)
T1 sequence (O75581 631-1244 limits assumed): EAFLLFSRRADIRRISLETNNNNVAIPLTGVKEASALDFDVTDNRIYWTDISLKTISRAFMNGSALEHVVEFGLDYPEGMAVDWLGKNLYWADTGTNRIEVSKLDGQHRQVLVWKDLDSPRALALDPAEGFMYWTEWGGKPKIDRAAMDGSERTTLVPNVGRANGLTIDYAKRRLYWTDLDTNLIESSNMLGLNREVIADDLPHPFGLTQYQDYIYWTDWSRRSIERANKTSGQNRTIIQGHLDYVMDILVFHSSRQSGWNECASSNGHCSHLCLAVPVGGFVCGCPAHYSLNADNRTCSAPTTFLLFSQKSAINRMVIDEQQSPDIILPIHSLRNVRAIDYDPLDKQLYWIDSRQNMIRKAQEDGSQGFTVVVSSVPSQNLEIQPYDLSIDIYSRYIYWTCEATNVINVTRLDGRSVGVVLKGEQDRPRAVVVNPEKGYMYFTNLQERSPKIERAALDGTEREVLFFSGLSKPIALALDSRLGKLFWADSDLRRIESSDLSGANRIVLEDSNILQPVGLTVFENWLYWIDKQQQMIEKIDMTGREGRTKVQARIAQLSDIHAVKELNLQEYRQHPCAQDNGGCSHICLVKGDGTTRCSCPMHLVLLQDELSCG


Molecular target: T1, Lrp6E3E4 domain
Test: Bio-layer interferometry (Octet) binding kinetics of VHH26 constructs
Details: 1:1 binding model
Procedure: These six humanized VHH26 variants H1 to H6 and the parental VHH26 were transiently expressed in Expi293 cells (at 80 mL scale) with a C-terminal hexa-histidine tag. Proteins were purified using His-Complete resin (Roche, USA) following standard procedures. Expression levels and homogeneity of VHH26 and its humanized variants were analyzed by SDS-PAGE and SEC (size-exclusion chromatography). […] Biotinylated LRP6E3E4 diluted to 50 nM in the running buffer (PBS, 0.05% Tween-20, 0.5% BSA, pH 7.2) were captured to the SA biosensor followed by dipping into wells containing the indicated VHH26 proteins at different concentrations in running buffer or into a well with only running buffer as a reference channel. KD for each binder was calculated by Octet System software, based on fitting to a 1:1 binding model. Kinetics values (Kon, Koff, KD) from each experiment was calculated from seven technical replicates of different concentrations of the molecule tested with Octet Data Analysis 9.0 (PALL ForteBio, Fremont, CA).
Central fractions of each of these peaks were examined by Octect-BLI for their ability interact with Lrp6. Kinetics parameters such as kon, koff, and KD for interaction between VHH26 constructs and Lrp6E3E4 domain are listed in Table 2. Analyses of these parameters reveal that the binding affinity towards Lrp6 is least affected in the case of the VHH26-H5 humanized variant compared to the parent VHH26 (Table 2; FIG. 3B).

[1] = SEC fraction C1/G1 (parental D3)
[2] = SEC fraction C3/G3 (parental D3)

Row | koff [1] | kon [1] | koff [2] | kon [2] | Molecule
1 | 9.51E−02 | 1.44E+05 | 5.56E−03 | 2.90E+04 | VHH26-H4: humanized variant of LRP6 binding VHH26, SEQ ID NO: 22 [VHH26-H4] (protein, VHH26_H4) VHH: EVQLVESGGGLVQPGGSLRLSCAGSGRIFAIYDIAWYRQAPGKGRELVAMIRPVVTEIDYADSVKGRFTISRDNSKNTVYLQMNSLRAEDTAVYYCNAKRPWGSRDEYWGQGTTVTVSS
2 | – | – | 3.98E−03 | 1.42E+04 | VHH26-H1: humanized variant of LRP6 binding VHH26, SEQ ID NO: 19 (protein, VHH26_H1) VHH: EVQLLESGGGLVQPGGSLRLSCAASGRIFAIYDIAWVRQAPGKGLEWVSMIRPVVTEIDYADSVKGRFTISRDNSKNTLYLQMNSLRAEDTAVYYCAKKRPWGSRDEYWGQGTTVTVSS
3 | 3.11E−02 | 4.52E+04 | 8.36E−03 | 1.72E+04 | VHH26-H6: humanized variant of LRP6 binding VHH26, SEQ ID NO: 24 [VHH26-H6] (protein, VHH26_H6) VHH: EVQLVESGGGLVQPGGSLRLSCAGSGRIFAIYDIAWYRQAPGKGRELVAMIRPVVTEIDYADSVKGRFTISRDNSKKTVYLQMNSLRAEDTAVYYCNAKRPWGSRDEYWGQGTTVTVSS
4 | 1.77E−02 | 4.28E+05 | 1.47E−02 | 1.35E+05 | VHH26-H5: humanized variant of LRP6 binding VHH26, SEQ ID NO: 23 (protein, VHH26_H5) VHH: EVQLVESGGGLVQPGGSLRLSCAGSGRIFAIYDIAWYRQAPGKGREWVAMIRPVVTEIDYADSVKGRFTISRDNSKKTVYLQMNSLRAEDTAVYYCNAKRPWGSRDEYWGQGTTVTVSS
5 | 6.53E−02 | 1.48E+05 | 6.84E−02 | 2.44E+05 | VHH26-H2: humanized variant of LRP6 binding VHH26, SEQ ID NO: 20 (protein, VHH26_H2) VHH: EVQLVESGGGLVQPGGSLRLSCAGSGRIFAIYDIAWYRQAPGKGLEWVAMIRPVVTEIDYADSVKGRFTISRDNSKNTVYLQMNSLRAEDTAVYYCNAKRPWGSRDEYWGQGTTVTVSS
6 | 5.22E−02 | 1.63E+04 | 7.75E−03 | 1.84E+04 | VHH26-H3: humanized variant of LRP6 binding VHH26, SEQ ID NO: 21 (protein, VHH26_H3) VHH: EVQLVESGGGLVQPGGSLRLSCAGSGRIFAIYDIAWYRQAPGKGREWVAMIRPVVTEIDYADSVKGRFTISRDNSKNTVYLQMNSLRAEDTAVYYCNAKRPWGSRDEYWGQGTTVTVSS
7 | 1.77E−02 | 8.10E+05 | 1.82E−02 | 1.05E+06 | VHH26 (parental): parental camelid LRP6 binding VHH, SEQ ID NO: 25 (protein, VHH26 (parental)) VHH: DVQLVESGGGLVQAGGSLRLACAGSGRIFAIYDIAWYRHPPGNQRELVAMIRPVVTEIDYADSVKGRFTISRNNAMKTVYLQMNNLKPEDTAVYYCNAKRPWGSRDEYWGQGTQVTVSS
